Test results published in paper PMC10902388.

How the values were obtained:
E6AP-Nanoluc (human) [1] = target: E6AP-Nanoluc (human) (UniProt Q05086); assay: SPR
E6AP-Nanoluc (human) [2] = target: E6AP-Nanoluc (human) (UniProt Q05086); assay: FRET or BRET

E6AP-Nanoluc (human), sequence (Q05086 whole entry): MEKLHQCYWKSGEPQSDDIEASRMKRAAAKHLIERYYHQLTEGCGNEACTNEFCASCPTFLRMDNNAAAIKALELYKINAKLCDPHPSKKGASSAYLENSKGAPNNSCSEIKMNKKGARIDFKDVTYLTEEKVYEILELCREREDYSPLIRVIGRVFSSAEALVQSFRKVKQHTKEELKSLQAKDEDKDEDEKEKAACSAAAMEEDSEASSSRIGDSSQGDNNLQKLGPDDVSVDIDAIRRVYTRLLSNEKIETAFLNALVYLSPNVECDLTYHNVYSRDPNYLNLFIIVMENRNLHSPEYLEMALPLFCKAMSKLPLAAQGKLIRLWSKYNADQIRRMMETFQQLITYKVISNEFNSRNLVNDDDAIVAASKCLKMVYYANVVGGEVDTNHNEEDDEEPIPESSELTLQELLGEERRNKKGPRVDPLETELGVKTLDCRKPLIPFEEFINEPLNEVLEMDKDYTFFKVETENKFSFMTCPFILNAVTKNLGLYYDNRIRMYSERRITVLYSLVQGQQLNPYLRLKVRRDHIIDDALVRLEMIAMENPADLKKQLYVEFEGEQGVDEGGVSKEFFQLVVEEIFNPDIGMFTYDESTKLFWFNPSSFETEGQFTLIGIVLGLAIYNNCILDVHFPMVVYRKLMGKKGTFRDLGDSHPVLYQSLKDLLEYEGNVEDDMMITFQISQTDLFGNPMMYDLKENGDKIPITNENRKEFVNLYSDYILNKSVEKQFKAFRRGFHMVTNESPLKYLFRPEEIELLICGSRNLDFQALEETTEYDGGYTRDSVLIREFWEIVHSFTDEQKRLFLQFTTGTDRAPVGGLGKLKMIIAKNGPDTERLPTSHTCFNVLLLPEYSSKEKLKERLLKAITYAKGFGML

Substance: MBP-16E6-HaloTag protein (from UniProt P03126) (natural protein)
- Kd (E6AP-Nanoluc (human) [1]): 4 nM
- Kd (E6AP-Nanoluc (human) [2]): 15.3 nM
